{"source": "paper PMC6681757", "key": {"[1]": {"biological_target": "isolated bovine cardiac native thin filaments (NTFs) (bovine) (UniProt Q3ZC07)", "experiment": "co-sedimentation; high-velocity cosedimentation with isolated bovine cardiac NTFs, absence of calcium (pCa 9)"}, "[2]": {"biological_target": "isolated bovine cardiac native thin filaments (NTFs) (bovine) (UniProt Q3ZC07)"}, "[3]": {"biological_target": "myosin S2Δ, the first 126 amino acids of myosin S2 (cardiac myosin)", "experiment": "MST; C1mC2 species (or native full-length cMyBP-C) titrated against myosin S2Δ; normalized MST curves; conditions in SI Appendix"}, "[4]": {"biological_target": "isolated bovine cardiac native thin filaments (NTFs) (bovine) (UniProt Q3ZC07)", "experiment": "co-sedimentation; high-velocity cosedimentation with isolated bovine cardiac NTFs, presence of 32 μmol/L CaCl2 (pCa 4.5)"}, "[5]": {"biological_target": "myosin S2Δ, the first 126 amino acids of myosin S2 (cardiac myosin)"}}, "note": "pKd: −log10 of the molar value."}
{"substance": "C1mC2 bis-phosphorylated by PKA on S288 and S279 (C1mC2-2P) (domain or fragment)", "values": [{"measurement": "pKd", "setting": "[1]", "result": 4.70}, {"measurement": "EC50 of activation of NTF-stimulated myosin S1 ATPase in the absence of calcium (pCa 9)", "setting": "[2]", "result": 5, "unit": "μmol/L"}]}
{"substance": "C1mC2 monophosphorylated on S288 (C1mC2-1P) (domain or fragment)", "values": [{"measurement": "pKd", "setting": "[1]", "result": 4.70}, {"measurement": "pKd", "setting": "[3]", "result": 4.52}, {"measurement": "EC50 of activation of NTF-stimulated myosin S1 ATPase in the absence of calcium (pCa 9)", "setting": "[2]", "result": 2, "unit": "μmol/L"}]}
{"substance": "C1mC2 monophosphorylated on S308 by PKCε (domain or fragment)", "values": [{"measurement": "pKd", "setting": "[1]", "result": 4.70}, {"measurement": "pKd", "setting": "[3]", "result": 4.52}]}
{"substance": "C1mC2 tris-phosphorylated by PKA on S288, S279 and S313 (C1mC2-3P) (domain or fragment)", "values": [{"measurement": "pKd", "setting": "[1]", "result": 4.22}, {"measurement": "pKd", "setting": "[4]", "result": 4.22}]}
{"substance": "C1mC2, recombinant fragment of rat cardiac myosin binding protein-C containing domains C1, the m-motif and C2, unphosphorylated (domain or fragment)", "values": [{"measurement": "EC50 of activation of thick filament structure (RLC BC probe orientation) in ventricular trabeculae, pCa 9", "setting": "[5]", "result": 10, "unit": "μmol/L"}, {"measurement": "pKd", "setting": "[1]", "result": 4.70}, {"measurement": "KD of the high-affinity binding site", "setting": "[3]", "result": 20.7, "unit": "µM"}, {"measurement": "KD of the low-affinity binding site", "setting": "[3]", "result": "> 400", "unit": "µM"}, {"measurement": "EC50 of activation of NTF-stimulated myosin S1 ATPase in the absence of calcium (pCa 9)", "setting": "[2]", "result": 1, "unit": "μmol/L"}, {"measurement": "IC50 of inhibition of NTF-stimulated myosin S1 ATPase in the absence of calcium (pCa 9), [C1mC2] > 2 μmol/L", "setting": "[2]", "result": 3, "unit": "μmol/L"}, {"measurement": "IC50 of inhibition of myosin S1-NTF ATPase during full calcium activation (pCa 4)", "setting": "[2]", "result": 2, "unit": "μmol/L"}, {"measurement": "maximal inhibition of myosin S1-NTF ATPase during full calcium activation (pCa 4)", "setting": "[2]", "result": 50, "unit": "%"}]}
{"substance": "C1mC2-S288A, unphosphorylated (domain or fragment)", "values": [{"measurement": "pKd", "setting": "[3]", "result": 4.70}]}
{"substance": "λ-protein phosphatase–treated native full-length cMyBP-C isolated from rat ventricular tissue (from UniProt P56741 1-1274) (natural protein)", "values": [{"measurement": "pKd", "setting": "[3]", "result": 4.62}]}
